B1: mRBD2 Fab fragment (Fab, V domains shown)
VH: QVQLQQSGAELARPGASVKLSCKASGYTFISNGISWVKQRTGQGLEWIGEIYPRNGNTYYNEKFKGKATLTADKSSSTAYMELRSLTSEDSAVFFCARDYYYGSFDYWGQGTTLTVSS
VL: DIQMTQSPSSLSASLGERVSLTCRASREISGYLTWLQQKPDGTIKRLIYAASTLDSGVPKRFSGSRSGSDYSLTISSLESEDFADYYCLQYASYPWTFGGGTKLEIK
B2: hRBD15 (antibody, V domains shown)
VH: QVQLVQSGAEVKKPGASVKVSCKASGYTFTSQYMHWVRQAPGQGLEWMGIINPSGGSTSYAQKFQGRVTMTSDTSTSTVYMELSSLRSEDTAVYYCARDIYFVPARGGFDPWGQGTLVTVSS
VL: EIVLTQSPGTLSLSPGERATLSCRASQSIISSYLAWYQQKPGQAPRLLIYGASSRATGIPDRFSGSGSGTDFTLTISRLEPEDFAVYYCQQSGSAPRYTFGQGTKLEIK
B3: hRBD14 (antibody, V domains shown)
VH: EVQLVESGGGLVQPGGSLRLSCAASGFSFSSSDMHWVRQATGKGLEWVSGIGTSGDTYYLGSVKGRFTISRDDAKNSFYLQMNSLRAGDTAVYYCARGEMAATGLWYYFDYWGQGTLVTVSS
VL: not shown
B4: mRBD23 (antibody, V domains shown)
VH: QVQLQQPGAELVRPGSSVKLSCKASGYTFTSYWMHWVKQRPIQGLEWIGNIDPSDSETHYNQKFKDKATLTVDKSSSTAYMQLSSLTSEDSAVYYCTRPGSLRSRGWYFDVWGTGTTVTVSS
VL: DIVMTQAAPSVPVTPGESVSISCRSSKSLLHSNGNTYLYWFLQRPGQSPQLLIYRMSNLASGVPDRFSGSGSGTAFTLRISRVEAEDVGVYYCMQHLEYPYTFGGGTKLEIK
B5: mRBD25 (antibody, V domains shown)
VH: QVQLQQSGPELVKPGASVKISCKASGYAFSNSWMNWVKQRPGKGLEWIGRIYPGDGDTNYNGKFKGKATLTADKSSSTAYMQLSSLTSEDSAVYFCANYYGDYWGQGTTLTVSS
VL: QIVLTQSPALMSASPGEKVTMTCSASSSVSYMYWYQQKPRSSPKPWIYLTSNLASGVPARFSGSGSGTSYSLTISSMEAEDAATYYCQQWSSNPYTFGGGTKLEIK
B6: hRBD10 (antibody, V domains shown)
VH: EVQLVESGGGLVQPGGSLRLSCSASGFTFTTYNMNWVRQAPGKGLEWVSYISSSSSTIYYADSVEGRFTISRDNAKNSLYLQMNSLRDEDTAVYYCARGVGATSYYYHGMDVWGQGTTVSVSS
VL: DIQMTQSPSSLSASVGDRVTITCRASQSIYSYLNWYKQKAGKAPKLLIYAASSLQSGVPSRFSGSGSGTDFTLTIISLQPEDFATYYCQQSYSTPPTFGQGTKVEIK
B7: hRBD13 (antibody, V domains shown)
VH: QVQLVESGGGVVQPGRSLRLSCAVSGFTFRNYGMDWVRQAPGKGLEWVAVISYDGSNKYYADSVKGRFTISRDNSKNTLFLHLNSLRAEDTAVYYCAKAGGGPYCGGGNCYMHYFDYWGQGTQVTVSS
VL: DIQMTQSPSSLSASVGDRVTITCQASQDINNYLNWYQQKPGKAPKLLIYDASNLETGVPLRFSGSGSATHFSFTISSLQPEDIATYYCQQYDHLPCTFGQGTKLEIR
B8: hRBD6 (antibody, V domains shown)
VH: QVQLQQWGAGLLKPSETLSLSCAVYGGAFSDYYWSWIRQPPGKGLEWIGEIDLSGSTNYNPSLKSRVTISVDTSKNQFSLKLISVTAADTAVYYCARTHLIGYCSGGSCYSGPDPSNWFDPWGQGTLVTVSS
VL: SSELTQDPAVSVALGQTVRITCQGDSLRSYYASWYQQKPGQAPVLVIYGKNNRPSGIPDRFSGSSSGNTASLTITGAQAEDEADYYCNSRDTSGHHPVFGGGTKLTVL
B9: mRBD21 (antibody, V domains shown)
VH: QIQLVQSGPELKKPGETVKISCKASGYTFTKYPMHWVKQAPGKGFKWMGMIYTDTGEPTYAEEFKGRCAFSLETSASTAYLQINNLKNEDTATYFCVRWGGSYALDYWGQGTSVTVSS
VL: DIVLTQSPASLAVSLGQRATISCRASESVDSYGNSFMHWYQQKPGQPPKLLIYRASNLESGIPARFSGSGSRTDFTLTINPVEADDVATYYCQQSNEDPLTFGAGTKLELK
B10: mRBD22 (antibody, V domains shown)
VH: QIQLVQSGPELKKPGETVKISCKASGYTFTEYPMHWVKQAPGKGFKWMGMIYTDTGEPTYAEEFKGRFAFSLETSASTAYLQINNLKNEDTATYFCVRGGYYYFDYWGQGTTLTVSS
VL: NIVLTQSPASLAVSLGQRATISCRASESVDSYGNSFMHWYQQKPGQPPKLLIYLASNLESGVPARFSGSGSRTDFTLTIDPVEADDAATYYCQQNNEDPWTFGGGTKLEIK
B11: hRBD11 (antibody, V domains shown)
VH: QVQLQESGPGLVKPSQTLSLTCTVSGGSISSGGYYWSWIRQHPGKGLEWIGYIFYSGSTYYNPSLKSRVIISVDTSKNQFSLKLSSVTAADTAAYYCARVNRVYGSGSYSLDPWGQGTLVTVSS
VL: QSALTQPASVSGSPGQSITISCTGTSRDVGDYDYVSWYQQHPGKAPKLMIYEGSERPSGVSNRFSGSKSGNTASLTISGLQAEDEADYYCCSYTGSSTSFLFGTGTKVTVL
B12: hRBD1 (antibody, V domains shown)
VH: QVQLVQSGSELKKPGASVKVSCKASGNTLTNHALNWVRQAPGQGLEWMGWINTNTGIPTYAQGFTGRFVFSLDTSVSTAYLQISSLKAEDTAVYYCARVGQTAIAALDDAFDIWGQGTMVTVSS
VL: not shown
B13: hRBD2 (antibody, V domains shown)
VH: QVQLVQSGSELKKPGASVKVSCKASGYTFSNYAINWVRQAPGQGLEWMGWINTNTGHPTYAQGFTGRFVFSLDASVTTAYLQISSLKAEDTAVYYCARVGRTAIAALDDAFDIWGQGTMVTVSS
VL: not shown
B14: mRBD24 (antibody, V domains shown)
VH: EVQLQQSGPDLVKPGASVKISCKASGYTFTDYYMNWVKQSHGKSLEWIGDINPNNGGTYYNQKFKGKATLTVDKSSSTAYMELRSLTSEDSAVYYCARQLRRWGQGTLVTVSA
VL: not shown

Each binder was assayed against SARS-CoV-2 RBD for crystallisation (SARS-CoV-2 (wildtype), UniProt P0DTC2) (assay: crystal structure).

Binder | binding result
B1 | binds

What follows are binders tested against receptor binding domain (RBD) of the wildtype (WT) SARS-CoV-2 spike protein (SARS-CoV-2, wildtype (sequence as in …)) (assay: not given).

Binder | binding result
B2 | binds
B3 | binds
B4 | binds
B5 | binds
B6 | binds
B7 | binds
B8 | binds
B9 | binds
B10 | binds
B11 | binds
B12 | binds
B13 | binds
B14 | binds
